Measured values from publication PMC10912764.

Experiments:
[1] = target: amyloid-β peptide Aβ (1–42) (UniProt P05067)
[2] = target: amyloid-β peptide Aβ (1–42) (UniProt P05067); remark: listed apart in the source

E. coli CsgA protein with a C-terminal 6× His tag, sequence (P28307 21-151): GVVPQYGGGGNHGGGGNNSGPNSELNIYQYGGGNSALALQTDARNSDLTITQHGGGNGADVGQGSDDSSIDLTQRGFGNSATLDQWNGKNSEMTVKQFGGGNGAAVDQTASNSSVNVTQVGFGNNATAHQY

Substance: E. coli CsgA protein with a C-terminal 6× His tag (from UniProt P28307 21-151) (natural protein)
- inhibition of Aβ aggregation (ThT fluorescence; 75 µM Aβ with 10 µM CsgA, excess Aβ 7.5:1) [1]: 43%
- lag phase of Aβ aggregation (ThT) with CsgA; approximately 150 h without CsgA [1]: 175 h
- inhibition of Aβ aggregation (ThT fluorescence; 75 µM Aβ with 10 µM CsgA), as given in the legend [2]: 47%
